Data reported in the MegaScale stability set (Tsuboyama et al. 2023).

B1: EEHEE_rd4_0763 (parent)
chain: LTVHVGNVTYHFDNPEQAEEWAKRMAKKYQGQIHVKDGQFRIE
B2: EHEE_rd2_1257 (parent)
chain: EEERTFTNEEEARKAKKEAEKRGLRVTVTKDGTTWRVRIG

Variants of: B1
Experiment: folding stability dG (cDNA display proteolysis); higher = more stable
Details: PBS, room temperature

Folding stability dG [kcal/mol]: each site, then its substitutions
Y10: N 0.135
G6: N 1.71; C 2.58; D 1.43; R 1.31
L1: N 2.06
I42: E 1.08; R 0.894
R41: H 2.48
Q32: R 1.64; I 2.03
H4: W 1.82; Y 1.59
E43: W 1.55; A 1.34; N 1.06
P15: G 1.23
V3: H 0.452; T 0.36
A18: V 0.996; C 1.54
N7: Y 1.62; M 1.57; P 1.45; W 1.65
Q30: K 1.92
Q39: D 1.63
N14: I 1.49; S 1.67
D13: I 1.48; W 1.4
K28: L 1.83
R24: T 1.45
V35: Q 1.2
M25: E 0.535; P -0.51
D37: I 0.903; N 1.43; L 1.12
E20: H 1.41; G 1.18
A26: P 0.273
K36: G 1.39; L 1.7
K27: N 1.39; R 1.75
V8: T 1.53; F 1.8
V5: I 1.69
Y29: H 1.32; C 2.16; Q 0.696
G38: W 0.872; T 0.621; D 1.25
I33: A 1.03; S 0.865
T9: S 1.4; D 1.01
F40: Y 1.78
A22: P -0.823; N 0.383; T 0.746
K23: G 1.02; C 2.37
T2: Y 1.59
H34: G 1

Variants of: B2
Experiment: as above
Details: PBS, room temperature

Folding stability dG [kcal/mol], by site and new letter:
L24: T 0.162; S 0.594; R 1.19; Q 1.41; Y 2.08; W 1.61; V 1.21
V28: M 2.37; T 0.613; F 1.45; Q -0.917; A -0.179; Y 0.822; L 2.58; W 0.937; C 1.96; I 2.71
W35: E -0.181; L 0.579; I 1.3; M 0.332; K -0.11; P 0.178; R 0.023; V 0.55; F 1.32; S -0.143; T 0.358; Y 1.35; G -0.505; N -0.29; Q -0.107; H 0.478; A -0.238; D -0.409
T33: A 2.13; P 2.58; H 2.11; Q 2.27; Y 2.15; V 1.84; S 2.15; F 2.18; I 1.89; K 2.05; R 1.57; C 2.5; G 2.28; L 2.12; M 2; E 2.77; N 2.63; D 3.11; W 1.65
R25: G 0.797; S 1.88; I 1.95; M 1.81; L 1.87; T 1.9; D 1.23; F 2.07; V 1.93; W 1.98; Q 1.89; K 2.06; E 1.5; Y 2.07; P 1.47; A 1.62; H 2.15; N 1.62
G32: Y 0.01; R 0.337; N 0.966; A 0.985; V 0.363; K 0.693; H 0.713; E 1.26; S 0.582; T 0.399; I -0.071; M 0.351; D 1.26; F 0.011; Q 0.902; L 0.595
T27: W 1.96; L 1.58; M 1.53; V 1.88; S 1.77; K 1.43; H 1.57; Y 1.92; E 1.64; D 1.05; F 1.83; R 1.62; G 0.262; A 1.19; I 1.95; Q 1.49; N 1.15
R38: S 1.93; W 2.11; Y 2.17; M 2.04; N 1.71; H 1.94; Q 1.74; A 1.71; E 1.48; F 2.23; L 2.27; K 2.08; T 2.33; D 1; V 2.45; I 2.59; G 0.853
G40: V 2.73; Y 3.08; A 2.19; H 2.68; I 2.71; D 2.18; K 2.07; R 2.08; F 3.04; L 2.71; S 2.6; E 2.56; N 2.07; P 0.916; Q 2.38; W 3.26; M 2.55; T 2.51
T34: G 1.83; A 1.68; H 2.12; Y 2.4; N 2.02; I 2.63; D 1.53; V 2.62; Q 1.97; M 2.37; K 1.97; L 2.76; W 2.08; E 1.81; R 1.87; S 1.82; F 2.53
K30: F 3.53; W 3.02; R 2.04; L 1.99; S 2.14; Y 3.22; E 1.31; P 0.867; A 1.53; V 1.83; D 1.24; T 2.57; M 1.75; I 1.66; H 2.22; Q 2.13; G 1.32; N 1.9
T29: D 1.2; V 2.18; L 1.8; I 2.36; M 1.83; A 1.29; W 2.6; K 1.34; Q 1.63; R 1.51; G 0.178; F 2.32; H 1.7; Y 2.33; S 1.62; N 1.09; C 1.83; E 1.87
D31: W 1.51; M 1.74; I 2.22; C 2.04; V 2.27; S 1.72; H 1.78; G 0.303; L 1.74; Q 1.7; K 1.34; E 2.15; T 1.76; N 1.57; F 1.69; Y 1.75; R 1.32; A 1.41
V37: W 0.056; D 0.331; F 0.864; M 1.61; C 1.05; I 1.7; P 0.556; Y -0.22; L 2.17; E 0.078
R36: V 2.78; S 1.17; A 0.9; L 2.15; Q 1.23; G -0.199; N 1.12; H 1.81; W 1.7; C 1.91; F 2.23; K 2.08; Y 2.47; M 1.65; E 0.524; P 0.209; T 2.15; I 3.03
V26: Y 0.032; G 0.489; I 0.589; A 2.13; P -0.777; M 0.445; T 0.897; S 0.809; W 0.008; L 0.171; F 0.359
I39: L 1.31; M 1.37; W 1.62; V 1.64; H 0.156; E 0.258; S 0.837; Q 0.241; F 1.75; Y 1.66; A 0.675; P 0.239; T 1.27; K -0.799; N -0.51; G -0.238; R -0.309
